In article PMC7934257:

Molecular target: D-allulose 3-epimerase (DaeB) from Bacillus sp. KCTC 13219 (Bacillus sp. KCTC 13219)
Test: SEC; Superdex 200 Increase 10/300 GL, 50 mM Tris pH 8.0, 300 mM NaCl, 0.5 mL/min; calibrated with ribonuclease A, ovalbumin, conalbumin and aldolase; self-association of purified DaeB

stoichiometry N: 2
Substance: D-allulose 3-epimerase (DaeB) from Bacillus sp. KCTC 13219 (enzyme)
